From paper PMC8591422 come the findings set out here.

For data set [1], the target named is T1, PBX1 (recombinant, Origene) (UniProt P40424 1-430).
T1 sequence: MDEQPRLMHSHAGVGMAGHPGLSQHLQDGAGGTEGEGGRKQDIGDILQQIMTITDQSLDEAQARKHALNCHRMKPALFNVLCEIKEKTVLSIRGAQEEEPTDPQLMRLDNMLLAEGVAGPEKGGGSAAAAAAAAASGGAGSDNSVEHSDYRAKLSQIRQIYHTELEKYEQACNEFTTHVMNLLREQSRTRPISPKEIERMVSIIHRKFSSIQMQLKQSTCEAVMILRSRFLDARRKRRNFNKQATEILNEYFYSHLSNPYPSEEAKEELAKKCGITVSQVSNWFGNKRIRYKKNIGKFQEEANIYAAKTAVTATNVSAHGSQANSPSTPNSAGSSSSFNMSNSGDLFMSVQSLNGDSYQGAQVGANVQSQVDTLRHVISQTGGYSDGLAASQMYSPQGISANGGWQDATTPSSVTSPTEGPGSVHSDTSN
The experiment in a line: EMSA.

The target in a further data set is T2, PBX1-DBD (UniProt P40424 233-295).
T2 sequence: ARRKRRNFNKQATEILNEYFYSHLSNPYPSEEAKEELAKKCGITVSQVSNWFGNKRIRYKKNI
The experiment in a line: SPR.

B1: PBX-MEIS Probe (dsDNA)
DNA 1: CTGCGTTGATTGACAGCCGC
DNA 2: GCGGCTGTCAATCAACGCAG
Take B1: the binding result in data set [1] is “binds”.

B2: PBX1 Probe (PBX1-CS-DNA-Biotin) (dsDNA)
DNA 1: CGAAATTGATTGATGCTTTAATTGAC
DNA 2: GTCAATTAAAGCATCAATCAATTTCG
B2: the Kd in the data set with PBX1-DBD was 800 pM.
